Experimental data taken from patent US7838288B2, “Modulators of odorant receptors” (Duke University, priority 2004, dated 2010).

Legend:
[1] = system: olfr62; assay: Living-cell staining of cell-surface olfr62; type: cell-based, mouse; conditions: accessory protein co-transfected in 293T cells
Protocol: The proteins encoded by these clones were named REEP1, for Receptor Expression Enhancing Protein 1 and RTP1, for Receptor Transporting Protein 1. Subsequently, RTP2 was found, a close relative of RTP1. […] Next, REEP1, RTP1, and RTP2 were tested to detect a similar effect in promoting cell-surface expression of other ORs. Four different ORs (mouse OREG, mouse olfr62, mouse OR-S46 and rat I7) were expressed in 293T cells with or without REEP1, RTP1, or RTP2. […] Additionally, ORs transfected with REEP and/or RTP generated more immunofluorescent cells and stronger signals in positive cells compared with ORs without REEP and/or RTP (see FIG. 2A). The signal intensity and the number of immunopositive cells varied when using different ORs at each condition. […] Nonetheless, occasional immunopositive cells were observed only when the accessory proteins were co-expressed. The effects of RTP1 or RTP2 were consistently more robust than that of REEP1. The enhancement of cell-surface expression was specific for ORs and not for other GPCRs: neither REEP and/or RTP enhanced expression of the β2 adrenergic receptor, mT2R5 (a mouse bitter taste receptor) (see, e.g., Chandrashekar, J., et al. (2000) Cell 100, 703-711; herein incorporated by reference in its entirety), or a V2R pheromone receptor (VR4) (see, e.g., Matsunami, H., and Buck, L. B. (1997) Cell 90, 775-784; herein incorporated by reference in its entirety) (see FIG. 2A and FIG. 3). Finally, enhancement of cell-surface expression of MOR203-1 was not observed when other members of the REEP and RTP families (REEP2 and RTP4) were co-expressed.
293T cells were maintained in minimal essential medium containing 10% fetal bovine serum (M10). Lipofectamine 2000 (Invitrogen) was used for transfection. In live-cell staining, 16 hours after transfection, cells were incubated in M10 containing anti rhodopsin antibody, 4D2 (see, e.g., Laird, D. W., and Molday, R. S. (1988) Invest Opthalmol V is Sci 29, 419-428; herein incorporated by reference in its entirety) and 15 mM NaN3 at 4 degrees C. for 1 hour. After washing, cells were incubated with Cy3-conjugated anti mouse IgG (Jackson Immunologicals), washed and mounted. For FACS analysis, 4D2 and PE-conjugated anti mouse IgG (Jackson Immunologicals) were used to monitor the Rho tagged receptor expression. Anti HA rabbit antibodies (Sigma) and Alexa 488 conjugated anti rabbit IgG (Molecular Probes) was used to stain the HA-β2 adrenergic receptor. To establish the Hana3a cells, 1 ug/ml of puromycin was used for selection. 96 colonies were picked and assayed using luciferase assay using OREG.

[2] = target: T1, mouse odorant receptor OREG (Mus musculus, UniProt Q920P2); assay: CRE-luciferase reporter gene assay, OREG; type: cell-based; conditions: 293T cells; compared to OR alone or control pCI
T1 construct: expressed in transfected cells; host or cells: 293T cells (with or without co-transfected REEP1/RTP1/RTP2) and Hana3A cells (293T stably expressing mouse REEP1, RTP1, RTP2, Galpha-olf)
T1 sequence (Q920P2 1-313): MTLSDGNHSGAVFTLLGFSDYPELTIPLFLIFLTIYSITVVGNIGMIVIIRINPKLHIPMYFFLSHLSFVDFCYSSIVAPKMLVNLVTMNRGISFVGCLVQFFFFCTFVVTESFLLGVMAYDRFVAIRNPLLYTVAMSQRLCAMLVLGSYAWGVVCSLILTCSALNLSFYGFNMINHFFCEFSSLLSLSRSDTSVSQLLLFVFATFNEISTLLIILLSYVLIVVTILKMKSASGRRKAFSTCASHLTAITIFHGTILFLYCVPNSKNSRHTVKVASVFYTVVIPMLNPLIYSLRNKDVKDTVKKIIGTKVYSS
Summary of the method: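 293T-derived cells stably expressing REEP1, RTP1, RTP2 and Gαolf, transfected with OREG, CRE-luciferase and SV40-Renilla control. Odorant applied in CD293 medium for 10 h or 4 h at 37 degrees C. Output is firefly luminescence minus no-odorant value, normalized to Renilla.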

B1: RTP1-A1: RTP1 variant from deleting portions of RTP1-A; murine SEQ ID NO: 46, human SEQ ID NO: 47 (protein, listed as Mus musculus)
chain: MCKSVTTGEWKKVFYEKMEEVKPADSWDFIIDPNLKHNVLAPGWKQYLELHASGRFHCSWCWHTWQSPHVVILFHMYLDKAQRAGSVRMRVFKQLCYECGTARLDESSMLEENIESLVDNLITSLREQCYGERGGHYRIHVASRQDNRRHRGEFCEACQEGIVHWKPSEKLLEEEATTYTFSRAPSPTKPQAETGSGCNFCSIPWCLFWATVLMLIIYLQFSFRTSV
**Q.** Which “cell-surface expression of olfr62” value [1] does the source give for B1 here?
**A.** Increased cell-surface staining

**Q.** What about the “OREG activity by luciferase, accessory protein co-expressed” value [2] of the same molecule?
**A.** Increased enhancement
